In US20250250357A1 (NANJING ZAIMING PHARMACEUTICAL, published 2025):
Read-outs that look alike come from different tables or passages of the source.

B1: F7.44.20-H5 (scFv, not shown: small tags and cut ends)
scFv: EVQLVQSGAEVKKPGASVKVSCKASGYTFTDYNMDWVRQAPGQGLEWMGDINPSTGGTIYNQKFQGRVTMTEDKSTSTVYMELSSLRSEDTAVYYCARRRIGTGYFDVWGQGTTVTVSSGGGGSGGGGSGGGGSEIVLTQSPDFQSVTPKEKVTITCSASSSVISSYLSWYQQKPDQSPKLLIYRTSNLASGVPSRFSGSGSGTDFTLTINSLEAEDAATYYCHQWSSFPYTFGGGTKVEIK
notes: also called S009-F7.44.20 humanized antibody VH1a + VL1
B2: F7.44.20-H9 (scFv, not shown: small tags and cut ends)
scFv: EVQLVQSGAEVKKPGASVKVSCKASGYTFTDYNMDWVRQAPGQGLEWMGDINPSTGGTIYNQKFNGRVTMTEDKSASTVYMELSSLRSEDTAVYYCARRRIGTGYFDVWGQGTTVTVSSGGGGSGGGGSGGGGSEIVLTQSPDFQSVTPKEKVTITCSASSSVISSYLSWYQQKPDQSPKLLIYRTSNLASGVPSRFSGSGSGTDFTLTINSLEAEDAATYYCHQWSSFPYTFGGGTKVEIK
notes: also called S009-F7.44.20 humanized antibody VH2 + VL1
B3: Tab110 (scFv, not shown: small tags and cut ends)
scFv: QQQLEESGGGLVKPEGSLTLTCKASGFDLGFYFYACWVRQAPGKGLEWIACIYTAGSGSTYYASWAKGRFTISKASSTTVTLQMTSLAAADTATYFCARSTANTRSTYYLNLWGPGTLVTVSSGGGGSGGGGSGGGGSDVVMTQTPASVSEPVGGTVTIKCQASQRISSYLSWYQQKPGQRPKLLIFGASTLASGVPSRFKGSGSGTEYTLTISDLECADAATYYCQSYAYFDSNNWHAFGGGTEVVV
notes: also called YP218 VH-(G4S)3-VL-his antibody; positive control
B4: F7.33.24-H1 (scFv, not shown: small tags and cut ends)
scFv: EVQLVQSGAEVKKPGASVKVSCKASGYTFTSYWMHWVRQAPGQRLEWMGNVNPSNGGSNYNEKFKNRVTITVDKSASTAYMELSSLRSEDTAVYYCAPHYIGSRPGFAYWGQGTLVTVSSGGGGSGGGGSGGGGSDIVMTQSPDSLAVSLGERATINCKASQNVGTNIAWYQQKPGQSPKALIYSASYRYSGVPDRFSGSGSGTDFTLTISSLQAEDVAVYYCQQYNSYPLTFGGGTKVEIK
notes: also called S009-F7.33.24 humanized antibody VH1 + VL1
B5: F7.44.20-H15 (scFv, not shown: small tags and cut ends)
scFv: EVQLVQSGAEVKKPGASVKVSCKASGYTFTDYNMDWVRQAPGQGLEWMGDINPSTGGTIYNQKFSGRVTMTEDKSASTVYMELSSLRSEDTAVYYCARRRIGTGYFDVWGQGTTVTVSSGGGGSGGGGSGGGGSEIVLTQSPATLSLSPGERATLSCSASSSVISSYLSWYQQKPGQSPRLLIYRTSNLASGIPARFSGSGSGTDYTLTISSLEPEDFAVYYCHQWSSFPYTFGGGTKVEIK
notes: also called S009-F7.44.20 humanized antibody VH2a + VL3
B6: F7.44.20-H16 (scFv, not shown: small tags and cut ends)
scFv: EVQLVQSGAEVKKPGASVKVSCKASGYTFTDYNMDWVRQAPGQGLEWMGDINPSTGGTIYNQKFSGRVTMTEDKSASTVYMELSSLRSEDTAVYYCARRRIGTGYFDVWGQGTTVTVSSGGGGSGGGGSGGGGSEIVLTQSPATLSLSPGERATLSCSASSSVISSYLSWYQQKPGSSPRLLIYRTSNLASGIPARFSGSGSGTDYTLTISSLEPEDFAVYYCHQWSSFPYTFGGGTKVEIK
notes: also called S009-F7.44.20 humanized antibody VH2a + VL4

Tests used:
[1] = target: T1, human MSLN-hFc recombinant protein (human, UniProt Q13421 296-580); assay: SPR (Biacore 8K), MSLN-hFc captured, antibody injected
T1 construct: Captured by an anti-human IgG antibody on the chip; also called human MSLN protein; Acro MSN-H5253
T1 sequence (Q13421 other isoform, or with tags, fused parts or gaps): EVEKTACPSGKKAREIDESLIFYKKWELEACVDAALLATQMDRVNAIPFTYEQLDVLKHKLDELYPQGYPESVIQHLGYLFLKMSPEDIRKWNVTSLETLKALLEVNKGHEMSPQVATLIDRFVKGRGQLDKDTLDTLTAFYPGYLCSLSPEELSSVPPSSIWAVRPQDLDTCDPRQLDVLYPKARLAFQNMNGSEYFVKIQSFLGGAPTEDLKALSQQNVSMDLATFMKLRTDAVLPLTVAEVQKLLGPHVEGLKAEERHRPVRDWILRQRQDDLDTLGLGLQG

[2] = target: T2, human MSLN-R3 on HEK293T-hMSLN-R3 recombinant cells (human, UniProt Q13421 487-606); assay: FACS, HEK293T-hMSLN-R3 cells
T2 construct: the C-terminal limit is uncertain; also called human MSLN-R3 membrane protein
T2 sequence (Q13421 495-614): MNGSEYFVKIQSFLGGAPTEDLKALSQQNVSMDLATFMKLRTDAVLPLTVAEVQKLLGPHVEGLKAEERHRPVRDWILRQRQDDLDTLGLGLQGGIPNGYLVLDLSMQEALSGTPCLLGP

[3] = target: T3, human MSLN on OVCAR3 tumor cells (human, UniProt Q13421 296-598); assay: FACS, OVCAR3 cells
T3 construct: whole, on cells; also called human MSLN protein
T3 sequence (Q13421 other isoform, or with tags, fused parts or gaps): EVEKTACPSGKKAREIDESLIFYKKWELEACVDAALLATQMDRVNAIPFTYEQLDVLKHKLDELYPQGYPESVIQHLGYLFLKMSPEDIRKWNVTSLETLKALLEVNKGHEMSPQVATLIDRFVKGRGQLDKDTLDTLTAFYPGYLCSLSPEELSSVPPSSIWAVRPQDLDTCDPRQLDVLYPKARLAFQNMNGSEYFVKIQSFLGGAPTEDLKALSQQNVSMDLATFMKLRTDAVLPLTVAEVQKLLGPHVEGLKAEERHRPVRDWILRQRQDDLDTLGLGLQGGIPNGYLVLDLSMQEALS

[4] = target: T4, monkey MSLN on HEK293T-monkey MSLN recombinant cells (monkey); assay: FACS, HEK293T-monkey MSLN cells
T4 construct: Full-length precursor as transfected; processing on the cell is not described; also called HEK293-monkey MSLN
T4 chain: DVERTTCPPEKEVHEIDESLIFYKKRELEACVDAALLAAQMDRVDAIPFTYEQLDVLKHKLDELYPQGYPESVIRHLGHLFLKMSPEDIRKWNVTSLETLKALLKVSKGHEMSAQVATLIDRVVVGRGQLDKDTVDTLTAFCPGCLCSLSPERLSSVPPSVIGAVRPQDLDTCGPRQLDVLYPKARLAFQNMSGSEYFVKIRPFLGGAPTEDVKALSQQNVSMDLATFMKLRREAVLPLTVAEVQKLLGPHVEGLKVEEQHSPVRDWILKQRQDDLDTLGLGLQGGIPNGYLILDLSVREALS

[5] = target: T2, human MSLN-R3 on HEK293T-hMSLN-R3 …; assay: FACS, HEK293T-hMSLN-R3 cells; remark: listed apart in the source
[6] = target: T3, human MSLN on OVCAR3 tumor cells; assay: FACS, OVCAR3 cells; remark: listed apart in the source
[7] = target: T4, monkey MSLN on HEK293T-monkey MSLN …; assay: FACS, HEK293T-monkey MSLN cells

Kd [1] | koff [1] | kon [1] | EC50 [2] | Maximum_MFI [2] | EC50 [3] | Maximum_MFI [3] | EC50 [4] | Maximum_MFI [4] | Maximum_MFI [5] | EC50 [6] | Maximum_MFI [6] | EC50 [5] | EC50 [7] | Maximum_MFI [7] | Binder
0.709 nM | 0.000313 s⁻¹ | 442000 M⁻¹ s⁻¹ | 0.94 nM | 1700 MFI | 1 nM | 1960 MFI | 4.55 nM | 7780 MFI | – | – | – | – | – | – | B1
0.464 nM | 0.000208 s⁻¹ | 449000 M⁻¹ s⁻¹ | 1.67 nM | 1560 MFI | 1.61 nM | 2220 MFI | 8.05 nM | 7460 MFI | – | – | – | – | – | – | B2
– | – | – | – | 461 MFI | – | – | – | – | 461 MFI | – | – | – | – | – | B3
– | – | – | – | – | – | – | – | – | 2190 MFI | 1.05 nM | 2180 MFI | 2.55 nM | 4.16 nM | 9050 MFI | B4
– | – | – | 0.91 nM | 1500 MFI | 1.77 nM | 1930 MFI | 4.47 nM | 8090 MFI | – | – | – | – | – | – | B5
1.85 nM | 0.000679 s⁻¹ | 367000 M⁻¹ s⁻¹ | 2.23 nM | 1440 MFI | 1.66 nM | 1650 MFI | 12.2 nM | 5980 MFI | – | – | – | – | – | – | B6
